Columns and labels:
[1] = target: T1, integrin αVβ5 (UniProt P06756 31-992; P18084 24-719); test: ELISA, coated integrin, anti-MICA-HRP
T1 construct: Coated on the ELISA plate
Procedure: (§1) The ability of the soluble MICA molecules in each of the concentrated supernatants to bind target molecules was assayed by an ELISA using the intended target proteins, integrin αVβ3 or αVβ5, as capture agents on the ELISA plate. After the respective integrins were adhered to the bottoms of the wells of the ELISA plate, the wells were washed and blocked, as well known in the field. Each sample (100 μl) of soluble MICA produced and secreted by 293T cells was added to wells containing αVβ3 or αVβ5, incubated and washed. The soluble MICA molecules captured by the integrins were detected by HRP-conjugated antibody to human MICA developed with Ultra TMB-ELISA substrate and the optical densities read. The quantity of soluble MICA in each sample was determined by the MICA-specific ELISA. […] The ELISA signal from a non-binding, negative control MICA (generated by pSW273) was subtracted from each integrin binding signal.

[2] = target: T2, integrin αVβ3 (UniProt P06756 31-992; P05106 27-718); test: ELISA, coated integrin, anti-MICA-HRP
T2 construct: Coated on the ELISA plate
T2 sequence (P06756 31-992, chain 1 of 2): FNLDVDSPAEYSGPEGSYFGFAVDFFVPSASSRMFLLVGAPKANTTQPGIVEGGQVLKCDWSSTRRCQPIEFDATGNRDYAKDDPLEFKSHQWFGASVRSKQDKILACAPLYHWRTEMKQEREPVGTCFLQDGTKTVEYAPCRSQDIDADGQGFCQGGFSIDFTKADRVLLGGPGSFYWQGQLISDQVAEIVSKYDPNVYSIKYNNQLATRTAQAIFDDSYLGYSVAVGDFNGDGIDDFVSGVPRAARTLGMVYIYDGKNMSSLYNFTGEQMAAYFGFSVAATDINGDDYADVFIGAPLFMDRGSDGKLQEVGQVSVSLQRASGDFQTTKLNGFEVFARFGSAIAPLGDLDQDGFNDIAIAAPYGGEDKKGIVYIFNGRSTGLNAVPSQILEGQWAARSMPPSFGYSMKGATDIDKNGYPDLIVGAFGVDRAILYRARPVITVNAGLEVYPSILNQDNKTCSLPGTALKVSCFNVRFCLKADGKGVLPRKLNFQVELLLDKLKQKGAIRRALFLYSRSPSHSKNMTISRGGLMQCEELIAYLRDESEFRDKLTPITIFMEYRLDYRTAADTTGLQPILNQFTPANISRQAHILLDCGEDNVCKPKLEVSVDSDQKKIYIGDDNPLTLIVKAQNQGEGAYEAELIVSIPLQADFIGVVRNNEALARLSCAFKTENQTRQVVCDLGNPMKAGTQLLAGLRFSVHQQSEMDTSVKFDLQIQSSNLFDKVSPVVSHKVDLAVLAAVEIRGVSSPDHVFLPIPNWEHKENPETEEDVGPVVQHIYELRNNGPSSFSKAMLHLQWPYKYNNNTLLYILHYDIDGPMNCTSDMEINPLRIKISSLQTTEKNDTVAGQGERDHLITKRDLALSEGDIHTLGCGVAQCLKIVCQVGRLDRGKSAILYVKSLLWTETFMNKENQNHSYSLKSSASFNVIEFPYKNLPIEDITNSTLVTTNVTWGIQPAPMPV
T2 sequence (P05106 27-718, chain 2 of 2): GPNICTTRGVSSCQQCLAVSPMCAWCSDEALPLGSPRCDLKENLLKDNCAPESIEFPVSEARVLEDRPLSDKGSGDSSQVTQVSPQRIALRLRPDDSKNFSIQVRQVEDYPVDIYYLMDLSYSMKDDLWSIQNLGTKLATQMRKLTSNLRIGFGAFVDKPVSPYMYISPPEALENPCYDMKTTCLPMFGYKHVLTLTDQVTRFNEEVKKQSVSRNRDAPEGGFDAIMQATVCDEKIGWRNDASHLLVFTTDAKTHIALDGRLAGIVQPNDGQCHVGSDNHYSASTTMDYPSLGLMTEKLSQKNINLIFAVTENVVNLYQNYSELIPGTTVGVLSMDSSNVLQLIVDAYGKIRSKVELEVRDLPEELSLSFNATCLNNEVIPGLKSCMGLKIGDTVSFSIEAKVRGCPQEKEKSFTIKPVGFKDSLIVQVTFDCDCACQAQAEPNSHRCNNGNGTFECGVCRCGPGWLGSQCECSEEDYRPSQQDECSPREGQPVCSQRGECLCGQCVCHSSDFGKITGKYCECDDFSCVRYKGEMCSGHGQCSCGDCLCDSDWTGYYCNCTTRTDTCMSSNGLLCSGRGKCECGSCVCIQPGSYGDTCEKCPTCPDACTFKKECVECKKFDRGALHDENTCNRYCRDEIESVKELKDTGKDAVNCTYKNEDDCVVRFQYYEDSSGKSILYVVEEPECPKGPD
Procedure: as §1

[3] = target: T1, integrin αVβ5; test: phage ELISA, coated integrin, anti-M13-HRP
Procedure: (§2) The phage vectors were independently transformed into NEBαF′tet competent E. coli cells. Phages produced by the transformed cells were tittered and their concentrations adjusted by dilution to 10¹³ per ml. The ability of the soluble MICA molecules in each of the phage preparations was assayed by an ELISA using the intended target proteins, integrin αVβ3 or αVβ5, as capture agents on the ELISA plate. After the respective integrins were adhered to the bottoms of the wells of the ELISA plate, the wells were washed and blocked, as well known in the field. Each sample (100 μl) of phage preparation was added to wells containing αVβ3 or αVβ5, incubated and washed. The phages captured by the integrins were detected by HRP-conjugated antibody to the M13 phage coat developed with Ultra TMB-ELISA substrate and the optical densities read.

[4] = target: T2, integrin αVβ3; test: phage ELISA, coated integrin, anti-M13-HRP
Procedure: as §2

T1 sequence (P06756 31-992, chain 1 of 2): as the sequence (P06756 31-992, chain 1 of 2) above
T1 sequence (P18084 24-719, chain 2 of 2): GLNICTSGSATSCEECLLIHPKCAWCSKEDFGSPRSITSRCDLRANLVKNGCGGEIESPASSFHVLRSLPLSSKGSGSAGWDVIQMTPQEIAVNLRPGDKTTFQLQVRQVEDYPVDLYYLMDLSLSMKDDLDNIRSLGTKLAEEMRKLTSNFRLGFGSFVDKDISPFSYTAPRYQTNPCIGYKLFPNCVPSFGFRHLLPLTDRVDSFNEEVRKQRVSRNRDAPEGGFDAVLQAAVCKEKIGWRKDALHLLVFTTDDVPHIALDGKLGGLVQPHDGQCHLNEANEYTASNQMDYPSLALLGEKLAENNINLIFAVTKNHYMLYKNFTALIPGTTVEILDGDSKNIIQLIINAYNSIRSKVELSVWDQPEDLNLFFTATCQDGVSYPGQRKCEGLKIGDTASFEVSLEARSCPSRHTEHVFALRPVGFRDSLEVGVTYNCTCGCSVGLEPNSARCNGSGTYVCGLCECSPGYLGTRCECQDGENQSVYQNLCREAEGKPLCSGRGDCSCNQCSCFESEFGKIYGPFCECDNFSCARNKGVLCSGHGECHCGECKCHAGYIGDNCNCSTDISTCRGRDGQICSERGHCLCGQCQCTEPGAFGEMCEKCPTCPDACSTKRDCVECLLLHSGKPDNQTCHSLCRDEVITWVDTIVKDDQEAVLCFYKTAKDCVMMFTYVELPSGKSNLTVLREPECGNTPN

| Binder | αvβ5 signal [1] | αvβ5 signal/ng [1] | αvβ3 signal [2] | αvβ3 signal/ng [2] | αvβ5 signal [3] | αvβ3 signal [4] |
| --- | --- | --- | --- | --- | --- | --- |
| soluble MICA generated from pKK36 (loop 1 insert 3.1) (designed binder, From pKK34 (His6, Glu125); secreted by 293T cells; also called 1-3.1) HHHHHHEPHSLRYNLTVLSWDGSVQSGFLTEVHLDGQPFLRCDRQKCRAKPQGQWAEDVLGNKTWDRETRDLTGNGKDLRMTLAHIKDQKEGLHSLQEIRVCEIHEDNSTRSSQHFYYDGELFLSQNLETEEWTMPQSSRAQTLAMNVRNFLKEDAMKTKTHYHAMHADCLQELRRYLKSGVVLRRTVPPMVNVTSRGDHPRTQVTCRASGFYPWNITLSWRQDGVSLSHDTQQWGDVLPDGNGTYQTWVATRICQGEEQRFTCYMEHSGNHSTHPVPSGK | 0.526 OD | 18.1 signal/ng MICA | 0.55 OD | 19 signal/ng MICA | – | – |
| soluble MICA generated from pKK49 (loop 3 insert extended 3.3sp) (designed binder, From pSW276 (no N-terminal His tag, Lys125); secreted by 293T cells; also called 3-3.3sp) EPHSLRYNLTVLSWDGSVQSGFLTEVHLDGQPFLRCDRQKCRAKPQGQWAEDVLGNKTWDRETRDLTGNGKDLRMTLAHIKDQKEGLHSLQEIRVCEIHEDNSTRSSQHFYYDGELFLSQNLETKEWTMPQSSRAQTLAMNVRNFLKEDAMKTKTHYHAMHADCLQELRRYLKSGVVLRRTVPPMVNVTRSEASEGNITVTCRASGFYPWNITLSWRQDGVSLSHDTQQWGDVLPDGNGTYQTWVATRISGGSGGGSRVPRGDSDLTSGGSGGGCYMEHSGNHSTHPVPSGK | 0.478 OD | 5.51 signal/ng MICA | 0.508 OD | 5.86 signal/ng MICA | – | – |
| soluble MICA generated from pKK51 (loop 3 insert extended 5.3sp) (designed binder, From pSW276 (no N-terminal His tag, Lys125); secreted by 293T cells; also called 3-5.3sp) EPHSLRYNLTVLSWDGSVQSGFLTEVHLDGQPFLRCDRQKCRAKPQGQWAEDVLGNKTWDRETRDLTGNGKDLRMTLAHIKDQKEGLHSLQEIRVCEIHEDNSTRSSQHFYYDGELFLSQNLETKEWTMPQSSRAQTLAMNVRNFLKEDAMKTKTHYHAMHADCLQELRRYLKSGVVLRRTVPPMVNVTRSEASEGNITVTCRASGFYPWNITLSWRQDGVSLSHDTQQWGDVLPDGNGTYQTWVATRISGGSGGGSHLARGDDLTYSGGSGGGCYMEHSGNHSTHPVPSGK | 1.05 OD | 10.9 signal/ng MICA | 0.694 OD | 7.2 signal/ng MICA | – | – |
| soluble MICA generated from pKK50 (loop 3 insert extended 5.1sp) (designed binder, From pSW276 (no N-terminal His tag, Lys125); secreted by 293T cells; also called 3-5.1sp) EPHSLRYNLTVLSWDGSVQSGFLTEVHLDGQPFLRCDRQKCRAKPQGQWAEDVLGNKTWDRETRDLTGNGKDLRMTLAHIKDQKEGLHSLQEIRVCEIHEDNSTRSSQHFYYDGELFLSQNLETKEWTMPQSSRAQTLAMNVRNFLKEDAMKTKTHYHAMHADCLQELRRYLKSGVVLRRTVPPMVNVTRSEASEGNITVTCRASGFYPWNITLSWRQDGVSLSHDTQQWGDVLPDGNGTYQTWVATRISGGSGGGSVTRGDTFTQSSGGSGGGCYMEHSGNHSTHPVPSGK | 0.721 OD | 7.73 signal/ng MICA | 0.546 OD | 5.85 signal/ng MICA | – | – |
| M13 phage pKK97 displaying MICA α3 domain with loop 1 insert 5.2 (designed binder, also called 1-5.2; not shown: C-terminal portion of M13 gene III protein, fused at codon position 198) TVPPMVNVTRGDTFTQSVTCRASGFYPWNITLSWRQDGVSLSHDTQQWGDVLPDGNGTYQTWVATRICQGEEQRFTCYMEHSGNHSTHPVPSGK | – | – | – | – | 2.59 OD | 1.55 OD |
| M13 phage pKK104 displaying MICA α3 domain with loop 3 insert 3.2sp (designed binder, also called 3-3.2sp; not shown: C-terminal portion of M13 gene III protein, fused at codon position 198) TVPPMVNVTRSEASEGNITVTCRASGFYPWNITLSWRQDGVSLSHDTQQWGDVLPDGNGTYQTWVATRISGGSGGGSTSRGDHPRTQSGGSGGGCYMEHSGNHSTHPVPSGK | – | – | – | – | 1.12 OD | 0.791 OD |
| M13 phage pKK105 displaying MICA α3 domain with loop 3 insert 3.3sp (designed binder, also called 3-3.3sp; not shown: C-terminal portion of M13 gene III protein, fused at codon position 198) TVPPMVNVTRSEASEGNITVTCRASGFYPWNITLSWRQDGVSLSHDTQQWGDVLPDGNGTYQTWVATRISGGSGGGSRVPRGDSDLTSGGSGGGCYMEHSGNHSTHPVPSGK | – | – | – | – | 1.11 OD | 1.33 OD |
| soluble MICA generated from pKK52 (tight loop 1 insert T-3.1) (designed binder, From pSW324 (from pKK34: His6, Glu125); secreted by 293T cells; also called 1-T-3.1) HHHHHHEPHSLRYNLTVLSWDGSVQSGFLTEVHLDGQPFLRCDRQKCRAKPQGQWAEDVLGNKTWDRETRDLTGNGKDLRMTLAHIKDQKEGLHSLQEIRVCEIHEDNSTRSSQHFYYDGELFLSQNLETEEWTMPQSSRAQTLAMNVRNFLKEDAMKTKTHYHAMHADCLQELRRYLKSGVVLRRTVPPMVNTSRGDHPRTQCRASGFYPWNITLSWRQDGVSLSHDTQQWGDVLPDGNGTYQTWVATRICQGEEQRFTCYMEHSGNHSTHPVPSGK | 0.485 OD | 12.6 signal/ng MICA | 0.391 OD | 10.1 signal/ng MICA | – | – |
| soluble MICA generated from pKK56 (tight loop 1 insert T-5.3) (designed binder, From pSW324 (from pKK34: His6, Glu125); secreted by 293T cells; also called 1-T-5.3) HHHHHHEPHSLRYNLTVLSWDGSVQSGFLTEVHLDGQPFLRCDRQKCRAKPQGQWAEDVLGNKTWDRETRDLTGNGKDLRMTLAHIKDQKEGLHSLQEIRVCEIHEDNSTRSSQHFYYDGELFLSQNLETEEWTMPQSSRAQTLAMNVRNFLKEDAMKTKTHYHAMHADCLQELRRYLKSGVVLRRTVPPMVNHLARGDDLTYCRASGFYPWNITLSWRQDGVSLSHDTQQWGDVLPDGNGTYQTWVATRICQGEEQRFTCYMEHSGNHSTHPVPSGK | 0.528 OD | 18.3 signal/ng MICA | 0.473 OD | 16.4 signal/ng MICA | – | – |
| soluble MICA generated from pKK54 (tight loop 1 insert T-3.3) (designed binder, From pSW324 (from pKK34: His6, Glu125); secreted by 293T cells; also called 1-T-3.3) HHHHHHEPHSLRYNLTVLSWDGSVQSGFLTEVHLDGQPFLRCDRQKCRAKPQGQWAEDVLGNKTWDRETRDLTGNGKDLRMTLAHIKDQKEGLHSLQEIRVCEIHEDNSTRSSQHFYYDGELFLSQNLETEEWTMPQSSRAQTLAMNVRNFLKEDAMKTKTHYHAMHADCLQELRRYLKSGVVLRRTVPPMVNRVPRGDSDLTCRASGFYPWNITLSWRQDGVSLSHDTQQWGDVLPDGNGTYQTWVATRICQGEEQRFTCYMEHSGNHSTHPVPSGK | 0.175 OD | 19.3 signal/ng MICA | 0.177 OD | 19.5 signal/ng MICA | – | – |
| soluble MICA generated from pKK53 (tight loop 1 insert T-3.5) (designed binder, From pSW324 (from pKK34: His6, Glu125); secreted by 293T cells; also called 1-T-3.5) HHHHHHEPHSLRYNLTVLSWDGSVQSGFLTEVHLDGQPFLRCDRQKCRAKPQGQWAEDVLGNKTWDRETRDLTGNGKDLRMTLAHIKDQKEGLHSLQEIRVCEIHEDNSTRSSQHFYYDGELFLSQNLETEEWTMPQSSRAQTLAMNVRNFLKEDAMKTKTHYHAMHADCLQELRRYLKSGVVLRRTVPPMVNGSRGDSLIMHCRASGFYPWNITLSWRQDGVSLSHDTQQWGDVLPDGNGTYQTWVATRICQGEEQRFTCYMEHSGNHSTHPVPSGK | 0.8 OD | 22.8 signal/ng MICA | 0.659 OD | 18.7 signal/ng MICA | – | – |
| soluble MICA generated from pKK55 (tight loop 1 insert T-5.1) (designed binder, From pSW324 (from pKK34: His6, Glu125); secreted by 293T cells; also called 1-T-5.1) HHHHHHEPHSLRYNLTVLSWDGSVQSGFLTEVHLDGQPFLRCDRQKCRAKPQGQWAEDVLGNKTWDRETRDLTGNGKDLRMTLAHIKDQKEGLHSLQEIRVCEIHEDNSTRSSQHFYYDGELFLSQNLETEEWTMPQSSRAQTLAMNVRNFLKEDAMKTKTHYHAMHADCLQELRRYLKSGVVLRRTVPPMVNVTRGDTFTQSCRASGFYPWNITLSWRQDGVSLSHDTQQWGDVLPDGNGTYQTWVATRICQGEEQRFTCYMEHSGNHSTHPVPSGK | 0.588 OD | 17.4 signal/ng MICA | 0.475 OD | 14 signal/ng MICA | – | – |
| M13 phage pKK92 displaying MICA α3 domain with loop 1 insert 3.1 (designed binder, also called 1-3.1; not shown: C-terminal portion of M13 gene III protein, fused at codon position 198) TVPPMVNVTSRGDHPRTQVTCRASGFYPWNITLSWRQDGVSLSHDTQQWGDVLPDGNGTYQTWVATRICQGEEQRFTCYMEHSGNHSTHPVPSGK | – | – | – | – | 1.32 OD | 0.858 OD |
| M13 phage pKK101 displaying MICA α3 domain with loop 1 insert 3.3sp (designed binder, also called 1-3.3sp; not shown: C-terminal portion of M13 gene III protein, fused at codon position 198) TVPPMVNVTSGGSGGGSRVPRGDSDLTSGGSGGGVTCRASGFYPWNITLSWRQDGVSLSHDTQQWGDVLPDGNGTYQTWVATRICQGEEQRFTCYMEHSGNHSTHPVPSGK | – | – | – | – | 1.23 OD | 1.49 OD |
| M13 phage pKK94 displaying MICA α3 domain with loop 1 insert 3.3 (designed binder, also called 1-3.3; not shown: C-terminal portion of M13 gene III protein, fused at codon position 198) TVPPMVNVTRVPRGDSDLTVTCRASGFYPWNITLSWRQDGVSLSHDTQQWGDVLPDGNGTYQTWVATRICQGEEQRFTCYMEHSGNHSTHPVPSGK | – | – | – | – | 2.84 OD | 1.07 OD |
| M13 phage pKK96 displaying MICA α3 domain with loop 1 insert 5.1 (designed binder, also called 1-5.1; not shown: C-terminal portion of M13 gene III protein, fused at codon position 198) TVPPMVNVTVTRGDTFTQSVTCRASGFYPWNITLSWRQDGVSLSHDTQQWGDVLPDGNGTYQTWVATRICQGEEQRFTCYMEHSGNHSTHPVPSGK | – | – | – | – | 2.42 OD | 1.64 OD |
| M13 phage pKK98 displaying MICA α3 domain with loop 1 insert 5.3 (designed binder, also called 1-5.3; not shown: C-terminal portion of M13 gene III protein, fused at codon position 198) TVPPMVNVTHLARGDDLTYVTCRASGFYPWNITLSWRQDGVSLSHDTQQWGDVLPDGNGTYQTWVATRICQGEEQRFTCYMEHSGNHSTHPVPSGK | – | – | – | – | 1.48 OD | 1.22 OD |

Reference: US20150165065A1 (AVIDBIOTICS, published 2015)
